Experimental data published in paper PMC6251626, “Structural basis of tubulin recruitment and assembly by microtubule polymerases with tumor overexpressed gene (TOG) domain arrays” (eLife, 2018).

B1: INT1+2 (Alp14-dimer with interfaces 1 and 2 inactivated) (domain or fragment)
chain: MSQDQEEDYSKLPLESRIVHKVWKVRLSAYEECSKSFSDAAAGSDNCFELWNNQSELWKSVLTDSNVAAQEAGTAAFVAYCRFSDPSHLLKAREISVLSISEKCLTSPRAGTRENALEALMLLVEADSAAPVIESIIPSLSARSPKVIASNVAAIASLVEQFGAKVIPSKMIIPHISNLFGHADKNVRKEASRLTVNIYRWTGDPAKDALFKDLRPVQTKELESLFAELPTEPPKQTRFLKSQQPTSEPNVETQVEEQPALENEESEPEPSDDQRAAAEEVDVLPNVDPNLETLMASSKWKDRKEALDKLLPVLSQPKILDNDFFNLVAILTKSVSKDANIMVVINAAHCIQAMAKGLASNFSKYASTSINALLERSKEKKANVIESLSSAMDAVLATSSLDDLAELIASFAGNKNPQIKSSCFSLFSRSFSNMTSDPAKFTVDTCAKACVPGVSDTFEPVRSAAAEALGVLMKLVGAAAINQYLSPLDDIRKSKIRSFYETATVKAKAPTKKSKVKPSKQEESKVVVPSNAKAVKKSVVPSSPVVPSPRKATNKSLSMDVSKGNAFENGPLLPRPTTRPVSRGLSRGTSSSLQQKVKASTPLNSGALNETVQNLKNMELDDPAPQPAKHSRVDRYEHPKVLEDNDSTISSLESLKRENEELREQLKVEHEENISMQKQLSELKGELNTL
B2: wt-Alp14-dimer (S. pombe Alp14 residues 1-690) (domain or fragment, UniProt O94534 1-690, looked up)
chain: MSQDQEEDYSKLPLESRIVHKVWKVRLSAYEECSKSFSLSADGSDNCFELWNNQSELWKSVLTDSNVAAQEAGTAAFVAYCRFSDPSHLLKAREISVLSISEKCLTSPRAGTRENALEALMLLVEADSAAPVIESIIPSLSARSPKVIASNVAAIASLVEQFGAKVIPSKMIIPHISNLFGHADKNVRKEASRLTVNIYRWTGDPLKDLLFKDLRPVQTKELESLFAELPTEPPKQTRFLKSQQPTSEPNVETQVEEQPALENEESEPEPSDDQFDLVEEVDVLPNVDPNLETLMASSKWKDRKEALDKLLPVLSQPKIKDNDFFNLVAILTKSVSKDANIMVVINAAHCIQAMAKGLRSNFSKYASTSINALLERSKEKKANVIESLSSAMDAVLATSSLDDLAELIASFAGNKNPQIKSSCFSLFSRSFSNMTSLPSKFTVDTCAKACVPGVSDTFEPVRSAAAEALGVLMKLVGERAINQYLSPLDDIRKSKIRSFYETATVKAKAPTKKSKVKPSKQEESKVVVPSNAKAVKKSVVPSSPVVPSPRKATNKSLSMDVSKGNAFENGPLLPRPTTRPVSRGLSRGTSSSLQQKVKASTPLNSGALNETVQNLKNMELDDPAPQPAKHSRVDRYEHPKVLEDNDSTISSLESLKRENEELREQLKVEHEENISMQKQLSELKGELNTL
notes: Alp14 (Alp14p), S. pombe, residues 1-690 (TOG1-TOG2, SK-rich region, coiled coil); also called dimeric Alp14; source: E. coli BL21, purified (Ni-IDA and/or ion exchange, SEC)

Key:
[1] = target: T1, αβ-tubulin heterodimer purified from porcine brains (porcine, UniProt P02550 1-451; P02554 1-445); experiment: SEC-MALS; Alp14 constructs mixed with soluble αβ-tubulin (with or without DRP), Superdex 200 Increase 10/300, 80-100 mM KCl; details: both partners purified
T1 construct: α-tubulin of porcine brain; β-tubulin of porcine brain; Brain tubulin is a mixture of isotypes; Chains also in PDB 6MZF, 6MZE, 6MZG; also called soluble porcine αβ-tubulin; source: purified from porcine brains (two GTP-polymerization cycles at high ionic strength); copies: 1 + 1

[2] = target: T1, αβ-tubulin heterodimer purified from …; experiment: SEC; quantitative SEC (Superdex 200 10/300) with SDS-PAGE densitometry of fractions; 2 αβ-tubulin per Alp14 subunit, with or without DRP; 100 mM KCl, 50 mM HEPES pH 7.0, 1 mM MgCl2, 1 mM β-mercaptoethanol; details: both partners purified
[3] = target: T1, αβ-tubulin heterodimer purified from …; experiment: SEC; quantitative SEC (Superdex 200 10/300) with SDS-PAGE densitometry of fractions; 2 αβ-tubulin per Alp14 subunit, with or without DRP; 200 mM KCl, 50 mM HEPES pH 7.0, 1 mM MgCl2, 1 mM β-mercaptoethanol; details: both partners purified
[4] = target: the molecule itself; experiment: SEC-MALS; isolated proteins alone, 200 mM KCl

Row | Binder | stoichiometry N [1] | TOG1-TOG2:αβ-tubulin molar ratio [2] | TOG1-TOG2:αβ-tubulin molar ratio [3] | stoichiometry N [4]
1 | B1 | ~4 | 1.86 | 1.46 | –
2 | B2 | – | – | – | 2
